# Data: publication PMC6515407, “Laccases with Variable Properties from Different Strains of Steccherinum ochraceum: Does Glycosylation Matter?” (International Journal of Molecular Sciences, 2019)
# B1: So3827 (Steccherinum ochraceum) (protein)
# chain: VQIGPVTDLHITNANIAPDGFTRPAVLAGGTFPGPTISGNTGDNFQITVFNELTETSMLTDTSIHWHGLFQKGTNWADGPAFVTQCPIITGNSFDYNFNVPGQAGTYWYHSHLSTQYCDGLRGPFVVYDPNDPNASLYDVDDDTTIITLADWYHTLAQQEPIGAAITADATLINGLGRSFTNTTASPLSVITVQSGKRYRMRLVSISCDPNYQFSIDGHDMTIIEVDGVNSQQLTVDQIQIFAAQRYSFVLNANQPVGNYWIRAQPNSGGQGFDGGINSAILRYEGATVADPTTSPPTTFTSPLVETNLHPLADLGVPGQPFRGGADDPMVLNLGFANGRFTIDGVSFVPPTVPVLLQILSGAQNAQDLLPAGSVISLPPNSVIEVALPAGAAGGPHPFHLHGHNFAVVQSANNATPNYVNPIWRDTVSIGGTGDNVTIRFTTNNPGPWFLHCHIDWHLEAGFAIVFAEDIPDTASANPVPQAWSDLCPAYDQAHNISTAT
# B2: So3398 (Steccherinum ochraceum) (protein)
# chain: B1 chain
# B3: So3617 (Steccherinum ochraceum) (protein)
# chain: B1 chain
# B4: So3622 (Steccherinum ochraceum) (protein)
# chain: B1 chain
# B5: So3120 (Steccherinum ochraceum) (protein)
# chain: B1 chain
# B6: So3174 (Steccherinum ochraceum) (protein)
# chain: B1 chain
# B7: So2134 (Steccherinum ochraceum) (protein)
# chain: B1 chain
# Columns and labels:
# Conditions in all cases: 0.1 M McIlvaine buffer pH 4.5, 25 °C, native glycosylated enzyme
# [1] = substrate: CCn1c(=NN=c2sc3cc(S(=O)(=O)O)ccc3n2CC)sc2cc(S(=O)(=O)O)ccc21; test: spectrophotometric oxidation kinetics; format: biochemical, Steccherinum ochraceum
# From the text: (§1) spectrophotometric oxidation kinetics on So3827
# [2] = substrate: COc1cc(C=NN=Cc2cc(OC)c(O)c(OC)c2)cc(OC)c1O; test: spectrophotometric oxidation kinetics; format: biochemical, Steccherinum ochraceum
# From the text: as §1
# [3] = substrate: CCn1c(=NN=c2sc3cc(S(=O)(=O)O)ccc3n2CC)sc2cc(S(=O)(=O)O)ccc21; test: spectrophotometric oxidation kinetics; format: biochemical, Steccherinum ochraceum; remark: listed apart in the source
# From the text: (§2) spectrophotometric oxidation kinetics on So3398
# [4] = substrate: COc1cc(C=NN=Cc2cc(OC)c(O)c(OC)c2)cc(OC)c1O; test: spectrophotometric oxidation kinetics; format: biochemical, Steccherinum ochraceum; remark: listed apart in the source
# From the text: as §2
# [5] = substrate: COc1cccc(OC)c1O; test: spectrophotometric oxidation kinetics; format: biochemical, Steccherinum ochraceum
# From the text: as §2
# [6] = substrate: CCn1c(=NN=c2sc3cc(S(=O)(=O)O)ccc3n2CC)sc2cc(S(=O)(=O)O)ccc21; test: spectrophotometric oxidation kinetics; format: biochemical, Steccherinum ochraceum; remark: listed apart in the source
# From the text: (§3) spectrophotometric oxidation kinetics on So3617
# [7] = substrate: COc1cc(C=NN=Cc2cc(OC)c(O)c(OC)c2)cc(OC)c1O; test: spectrophotometric oxidation kinetics; format: biochemical, Steccherinum ochraceum; remark: listed apart in the source
# From the text: as §3
# [8] = substrate: CCn1c(=NN=c2sc3cc(S(=O)(=O)O)ccc3n2CC)sc2cc(S(=O)(=O)O)ccc21; test: spectrophotometric oxidation kinetics; format: biochemical, Steccherinum ochraceum; remark: listed apart in the source
# From the text: (§4) spectrophotometric oxidation kinetics on So3622
# [9] = substrate: COc1cc(C=NN=Cc2cc(OC)c(O)c(OC)c2)cc(OC)c1O; test: spectrophotometric oxidation kinetics; format: biochemical, Steccherinum ochraceum; remark: listed apart in the source
# From the text: as §4
# [10] = substrate: CCn1c(=NN=c2sc3cc(S(=O)(=O)O)ccc3n2CC)sc2cc(S(=O)(=O)O)ccc21; test: spectrophotometric oxidation kinetics; format: biochemical, Steccherinum ochraceum; remark: listed apart in the source
# From the text: (§5) spectrophotometric oxidation kinetics on So3120
# [11] = substrate: COc1cc(C=NN=Cc2cc(OC)c(O)c(OC)c2)cc(OC)c1O; test: spectrophotometric oxidation kinetics; format: biochemical, Steccherinum ochraceum; remark: listed apart in the source
# From the text: as §5
# [12] = substrate: COc1cccc(OC)c1O; test: spectrophotometric oxidation kinetics; format: biochemical, Steccherinum ochraceum; remark: listed apart in the source
# From the text: as §5
# purified protein = substrate: COc1ccccc1O; test: purified protein
# [13] = substrate: CCn1c(=NN=c2sc3cc(S(=O)(=O)O)ccc3n2CC)sc2cc(S(=O)(=O)O)ccc21; test: spectrophotometric oxidation kinetics; format: biochemical, Steccherinum ochraceum; remark: listed apart in the source
# From the text: (§6) spectrophotometric oxidation kinetics on So3174
# [14] = substrate: COc1cc(C=NN=Cc2cc(OC)c(O)c(OC)c2)cc(OC)c1O; test: spectrophotometric oxidation kinetics; format: biochemical, Steccherinum ochraceum; remark: listed apart in the source
# From the text: as §6
# [15] = substrate: COc1cccc(OC)c1O; test: spectrophotometric oxidation kinetics; format: biochemical, Steccherinum ochraceum; remark: listed apart in the source
# From the text: as §6
# [16] = substrate: Oc1ccccc1O; test: spectrophotometric oxidation kinetics; format: biochemical, Steccherinum ochraceum
# From the text: as §6
# [17] = substrate: CCn1c(=NN=c2sc3cc(S(=O)(=O)O)ccc3n2CC)sc2cc(S(=O)(=O)O)ccc21; test: spectrophotometric oxidation kinetics; format: biochemical, Steccherinum ochraceum; remark: listed apart in the source
# From the text: (§7) spectrophotometric oxidation kinetics on So2134
# [18] = substrate: COc1cc(C=NN=Cc2cc(OC)c(O)c(OC)c2)cc(OC)c1O; test: spectrophotometric oxidation kinetics; format: biochemical, Steccherinum ochraceum; remark: listed apart in the source
# From the text: as §7
# [19] = substrate: COc1cccc(OC)c1O; test: spectrophotometric oxidation kinetics; format: biochemical, Steccherinum ochraceum; remark: listed apart in the source
# From the text: as §7
protein,measurement,setting,value
B1,Km,[1],200 ± 7 µM
same,kcat,[1],276 ± 31 s⁻¹
same,kcat/Km,[1],1.38e+06 ± 162000 M⁻¹ s⁻¹
same,Km,[2],6.7 ± 0.9 µM
same,kcat,[2],113 ± 12 s⁻¹
same,kcat/Km,[2],1.69e+07 ± 2.87e+06 M⁻¹ s⁻¹
B2,Km,[3],209 ± 27 µM
same,kcat,[3],281 ± 26 s⁻¹
same,kcat/Km,[3],1.34e+06 ± 214000 M⁻¹ s⁻¹
same,Km,[4],5.6 ± 0.8 µM
same,kcat,[4],119 ± 11 s⁻¹
same,kcat/Km,[4],2.12e+07 ± 3.56e+06 M⁻¹ s⁻¹
same,Km,[5],17 ± 3 µM
same,kcat,[5],152 ± 12 s⁻¹
same,kcat/Km,[5],8.94e+06 ± 1.52e+06 M⁻¹ s⁻¹
B3,Km,[6],212 ± 10 µM
same,kcat,[6],228 ± 21 s⁻¹
same,kcat/Km,[6],1.08e+06 ± 111000 M⁻¹ s⁻¹
same,Km,[7],5.2 ± 0.6 µM
same,kcat,[7],89 ± 10 s⁻¹
same,kcat/Km,[7],1.71e+07 ± 2.69e+06 M⁻¹ s⁻¹
B4,Km,[8],174 ± 11 µM
same,kcat,[8],252 ± 20 s⁻¹
same,kcat/Km,[8],1.45e+06 ± 147000 M⁻¹ s⁻¹
same,Km,[9],5.5 ± 0.7 µM
same,kcat,[9],83 ± 7 s⁻¹
same,kcat/Km,[9],1.51e+07 ± 2.21e+06 M⁻¹ s⁻¹
B5,Km,[10],175 ± 23 µM
same,kcat,[10],325 ± 28 s⁻¹
same,kcat/Km,[10],1.86e+06 ± 290000 M⁻¹ s⁻¹
same,Km,[11],5.4 ± 0.8 µM
same,kcat,[11],105 ± 12 s⁻¹
same,kcat/Km,[11],1.94e+07 ± 3.62e+06 M⁻¹ s⁻¹
same,Km,[12],17 ± 3 µM
same,kcat,[12],110 ± 14 s⁻¹
same,kcat/Km,[12],6.47e+06 ± 1.27e+06 M⁻¹ s⁻¹
B6,Km,purified protein,2230 ± 205 µM
same,kcat,purified protein,152 s⁻¹
same,kcat/Km,purified protein,68000 M⁻¹ s⁻¹
same,Km,[13],81 ± 9 µM
same,kcat,[13],240 ± 21 s⁻¹
same,kcat/Km,[13],2.96e+06 ± 416000 M⁻¹ s⁻¹
same,Km,[14],3.8 ± 0.6 µM
same,kcat,[14],104 ± 11 s⁻¹
same,kcat/Km,[14],2.74e+07 ± 5.09e+06 M⁻¹ s⁻¹
same,Km,[15],20 ± 2 µM
same,kcat,[15],101 ± 9 s⁻¹
same,kcat/Km,[15],5.05e+06 ± 755000 M⁻¹ s⁻¹
same,Km,[16],576 ± 86 µM
same,kcat,[16],373 ± 27 s⁻¹
same,kcat/Km,[16],648000 ± 108000 M⁻¹ s⁻¹
B7,Km,[17],100 ± 6 µM
same,kcat,[17],254 ± 23 s⁻¹
same,kcat/Km,[17],2.54e+06 ± 276000 M⁻¹ s⁻¹
same,Km,[18],3.7 ± 0.5 µM
same,kcat,[18],91 ± 7 s⁻¹
same,kcat/Km,[18],2.46e+07 ± 3.93e+06 M⁻¹ s⁻¹
same,Km,[19],21 ± 2 µM
same,kcat,[19],166 ± 14 s⁻¹
same,kcat/Km,[19],7.9e+06 ± 1.03e+06 M⁻¹ s⁻¹
